Experimental data taken from article PMC3173194.

Target: GalNAc-glycosylated recombinant MUC2 fragment (UniProt Q02817)
Experiment: peptide or protein array

percent of the total binding (of GalNAc-T2 to GalNAc-MUC2, with Mn2+ and UDP): 20%
Substance: GalNAc-T2 with a mutation in the α-lectin subdomain (GalNAc-T2^458H) (from UniProt Q10471 52-571) (enzyme)
